Laboratory results reported in article PMC3496993.

Biological target: α2β1 integrin on K562 cells transfected with the α2 integrin subunit (not stated | human (endogenous in K562)) (UniProt P17301)
Chain of UniProt P17301 (P17301 30-1181, chain 1 of 2): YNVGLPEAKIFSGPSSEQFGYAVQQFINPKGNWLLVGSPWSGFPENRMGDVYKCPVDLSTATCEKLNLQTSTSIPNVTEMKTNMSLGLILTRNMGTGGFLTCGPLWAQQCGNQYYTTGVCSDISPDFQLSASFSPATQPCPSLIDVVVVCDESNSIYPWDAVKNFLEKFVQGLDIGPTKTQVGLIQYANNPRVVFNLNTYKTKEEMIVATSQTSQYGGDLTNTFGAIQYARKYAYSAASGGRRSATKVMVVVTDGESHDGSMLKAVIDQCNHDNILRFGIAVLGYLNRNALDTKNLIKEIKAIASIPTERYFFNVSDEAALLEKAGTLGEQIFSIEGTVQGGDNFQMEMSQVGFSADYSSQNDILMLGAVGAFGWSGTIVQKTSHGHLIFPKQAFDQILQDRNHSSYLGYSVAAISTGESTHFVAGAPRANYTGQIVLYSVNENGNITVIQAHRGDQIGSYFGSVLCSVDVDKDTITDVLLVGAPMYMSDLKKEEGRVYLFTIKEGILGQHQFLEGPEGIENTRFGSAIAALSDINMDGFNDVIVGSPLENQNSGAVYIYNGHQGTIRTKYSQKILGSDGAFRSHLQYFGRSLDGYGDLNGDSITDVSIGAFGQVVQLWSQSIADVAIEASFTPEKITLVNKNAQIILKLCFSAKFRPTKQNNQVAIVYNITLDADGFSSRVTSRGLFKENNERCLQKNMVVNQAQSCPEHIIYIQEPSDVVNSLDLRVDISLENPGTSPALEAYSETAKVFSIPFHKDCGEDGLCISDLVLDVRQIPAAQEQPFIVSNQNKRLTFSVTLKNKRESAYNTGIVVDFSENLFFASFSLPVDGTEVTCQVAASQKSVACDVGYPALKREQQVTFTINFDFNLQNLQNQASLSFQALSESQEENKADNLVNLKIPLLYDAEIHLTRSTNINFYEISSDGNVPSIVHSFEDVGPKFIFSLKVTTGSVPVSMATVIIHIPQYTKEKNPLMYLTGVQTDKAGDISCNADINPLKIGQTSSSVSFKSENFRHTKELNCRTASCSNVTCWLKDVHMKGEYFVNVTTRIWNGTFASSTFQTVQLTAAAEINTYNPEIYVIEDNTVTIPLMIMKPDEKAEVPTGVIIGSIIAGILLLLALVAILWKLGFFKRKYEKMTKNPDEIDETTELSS
Chain of UniProt P17301 (P05556 21-798, chain 2 of 2, further chain): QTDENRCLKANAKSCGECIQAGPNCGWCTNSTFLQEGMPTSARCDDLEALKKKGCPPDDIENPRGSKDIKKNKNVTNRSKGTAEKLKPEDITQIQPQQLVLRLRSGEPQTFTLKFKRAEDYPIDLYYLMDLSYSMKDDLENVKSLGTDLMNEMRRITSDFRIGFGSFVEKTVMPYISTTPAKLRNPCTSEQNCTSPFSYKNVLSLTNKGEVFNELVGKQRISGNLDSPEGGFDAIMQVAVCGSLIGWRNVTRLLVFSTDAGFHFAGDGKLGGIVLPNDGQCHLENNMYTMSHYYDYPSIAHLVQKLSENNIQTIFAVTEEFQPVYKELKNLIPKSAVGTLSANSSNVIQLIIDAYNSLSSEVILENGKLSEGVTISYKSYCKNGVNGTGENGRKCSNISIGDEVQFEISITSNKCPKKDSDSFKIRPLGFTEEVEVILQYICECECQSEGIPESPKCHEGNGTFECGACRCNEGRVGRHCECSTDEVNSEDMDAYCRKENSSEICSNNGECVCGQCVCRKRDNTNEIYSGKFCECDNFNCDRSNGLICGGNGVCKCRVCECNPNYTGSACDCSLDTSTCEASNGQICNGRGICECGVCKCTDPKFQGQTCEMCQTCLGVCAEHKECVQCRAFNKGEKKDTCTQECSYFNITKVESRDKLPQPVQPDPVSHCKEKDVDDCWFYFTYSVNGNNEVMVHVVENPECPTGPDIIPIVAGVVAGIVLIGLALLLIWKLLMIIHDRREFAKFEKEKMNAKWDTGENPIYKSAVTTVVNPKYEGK

Question: For “Vixapatin (VP12), C-type lectin-like protein from Vipera xantina palestinae venom (complex)”, which IC50 of inhibition of adhesion of α2K562 transfectants to immobilised collagen I (blocks collagen I with α2β1), dose-response of Vixapatin is on record?
Answer: 3.2 nM
